The target of the experiment is CRMP1 (human, UniProt Q14194). Kind of experiment: ELISA. In general terms: In an ELISA, binding on a coated surface is turned into a signal by an enzyme label.

From patent publication US20260356928 (published 2026) come the findings set out here.

B1: NI-504.3E7 (antibody, V domains shown)
VH: EVQLVETGGGFVQPGGSLQLSCAVSGFPYSGTSFHWVRQVSGKGLEWIGRIRSKSDNYETSYTESLKGRFIVSRDDSKNMVRLHLYSLRTEDTALYYCTTGIIVVDTSYLDHWGRGTLVTVSS
VL: SYELTQPPSASVSPGQTARITCSGAALPKKYAYWYQLKSGQAPVLVIYEDTKRPSGIPERFSGSSSGTLATLTINGALVEDEADYYCYSTDSSGDVWVFGGGTKLTVL
On to B1, for which the EC50 is 69 nM.

What is called EC50 is the concentration needed to bring the measured effect to its halfway point.
